Legend:
[1] = target: T1, AMC009 SOSIP trimer (SOSIP version not stated, negative stain EM) (HIV-1); assay: negative stain electron microscopy; conditions: both partners purified
T1 construct: copies: 3 + 3

[2] = target: AMC009 SOSIP trimer (SOSIPv4.2) (HIV-1); assay: cell-based or functional assay

Binder	stoichiometry N [1]	neutralization of the AMC009 virus (TZM-bl cells), IC50 relative to ACS101 [2]
ACS103 Fab (Fab, V domains shown) VH: QVQLVQSGAEVKRPGASVRVSCEASGYRFTAYHIHWLRQAPGQGLEWMGWVNTLTSGVNYGWKFQGRVKMTRERSIDTDTAYLDLSGLRLDDTAVYYCARGNGKSDDERSTYQYFGPWGQGTLVTVSS VL: QTVVTQPASVSGSPGQSITISCAGSSSDIGSYDYVSWYQQHPGKAPKVVIYDVTKRPSDISHRFSASKSGNTASLTISGLQPEDEAQYRCCTYAQTVLCGGGTKLTVL	3 Fabs per trimer	
ACS101 Y100fW mutant monoclonal antibody (IgG) (antibody, V domains shown) VH: EVQLLESGAEVKKPGASVRVSCEASGYTFTKYFIHWVRQAPGHGLEWIGWINTLTSGVNYARNFQGRLTLTRDLSTETVYMDLRNLKSDDTAVYYCARGGRGYDEPWGAWTWLDPWGQGSLVTVSS VL: SYELTQPASVSGSPGQSITISCTGSSIGSYDLVSWYQQYPGKAPKVIIFEVSKRPSGVSHRFSGSKSGNTAALTISGLQVEDEAIYHCYSYDDMIIFGGGTRLTVL		~12 fold

Source: publication PMC9349188 (Nature Communications, 2022)
